The values that follow come from publication PMC5725599, “Insights into substrate binding of ferulic acid esterases by arabinose and methyl hydroxycinnamate esters and molecular docking” (Scientific Reports, 2017).

Substrate in data set [1]: COC(=O)/C=C/c1ccc(O)c(OC)c1
The data set can be described thus: HPLC of released free acid, Michaelis-Menten nonlinear fit. It counts as biochemical, Aspergillus niger. To be noted: 100 mM MOPS-NaOH pH 6.0, 45 °C, 30 min, substrate stock in DMSO. An excerpt:
(§1) HPLC of released free acid, Michaelis-Menten nonlinear fit on AnFaeA

Substrate in data set [2]: COC(=O)/C=C/c1ccc(O)c(O)c1
The data set is described as above. It is filed as biochemical, Aspergillus niger. Particulars: 100 mM MOPS-NaOH pH 6.0, 45 °C, 30 min, substrate stock in DMSO.
Description: as §1

B1: AnFaeA (Aspergillus niger) (protein)
chain: ASTQGISEDLYNRLVEMATISQAAYADLCNIPSTIIKGEKIYNAQTDINGWILRDDTSKEIITVFRGTGSDTNLQLDTNYTLTPFDTLPQCNDCEVHGGYYIGWISVQDQVESLVKQQASQYPDYALTVTGHSLGASMAALTAAQLSATYDNVRLYTFGEPRSGNQAFASYMNDAFQVSSPETTQYFRVTHSNDGIPNLPPADEGYAHGGVEYWSVDPYSAQNTFVCTGDEVQCCEAQGGQGVNDAHTTYFGMTSGACTW
notes: recombinant, expressed in Pichia pastoris as described previously
In general, Km refers to the substrate concentration at which the rate is half of its maximum. For the protein B1, the Km in data set [1] was determined as 1420 ± 260 µM; in data set [2] it was 870 ± 170 µM.
